To fix the notation:
T1: H. sapiens Rad51 (H. sapiens, UniProt Q06609 1-339)
T1 construct: Expressed in yeast as a two-hybrid fusion; also called human RAD51
T1 sequence: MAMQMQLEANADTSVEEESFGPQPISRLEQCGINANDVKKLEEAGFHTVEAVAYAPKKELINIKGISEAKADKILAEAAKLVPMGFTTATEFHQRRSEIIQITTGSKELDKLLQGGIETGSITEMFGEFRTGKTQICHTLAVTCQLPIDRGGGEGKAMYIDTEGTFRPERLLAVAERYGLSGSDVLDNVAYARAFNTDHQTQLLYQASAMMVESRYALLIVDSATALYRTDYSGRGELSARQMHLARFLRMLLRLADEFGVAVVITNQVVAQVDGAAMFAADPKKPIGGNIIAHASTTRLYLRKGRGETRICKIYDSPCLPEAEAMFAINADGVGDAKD

T2: Rad51, fluorescently labelled (microscale thermophoresis) (UniProt Q06609 1-339, limits assumed, fluorescently labelled according to the manufacturer's protocol (site not stated))
T2 construct: Purified labelled protein at about 500 nM; The buffer contained 0.5 mM ATP and 2.5 uM ssDNA
T2 sequence (looked up): T1 sequence

B1: Rad51 (S208E; A209D) (enzyme)
chain: T1 sequence with S208E, A209D
notes: Human RAD51 mutant tested by Y2H; also called human RAD51 S208E A209D
B2: Rad51 (A190L; A192L) (enzyme)
chain: T1 sequence with A190L, A192L
notes: Human RAD51 mutant tested by Y2H; also called human RAD51 A190L A192L
B3: Rad51 (F86E; A89E) (enzyme)
chain: T1 sequence with F86E, A89E
notes: Human RAD51 mutant tested by Y2H; also called human RAD51 F86E A89E
B4: Rad51 (Q202R, Y205D, Q206A) (enzyme)
chain: T1 sequence with Q202R, Y205D, Q206A
notes: Human RAD51 mutant tested by Y2H; also called human RAD51 Q202R Y205D Q206A
B5: Rad51 (S208L; A209E; M210A) (enzyme)
chain: T1 sequence with S208L, A209E, M210A
notes: Human RAD51 mutant tested by Y2H; also called human RAD51 S208L A209E M210A

Where a chain is given by its changes, count along the chain named. Numbers in names are those of the source. Non-standard residues stand in square brackets, D forms with d. Groups on a side chain read outwards from the residue. *: point of attachment. 5FAM = O=C1OC2(c3ccc(O)cc3Oc3cc(O)ccc32)c2ccc(C(=O)*)cc21

One test addresses T1, H. sapiens Rad51. The experiment in a line: yeast two-hybrid, human RAD51 mutant. The procedure: (§1) The ability of peptides to bind human RAD51 with various mutations was then tested by Y2H assay. […] While mutations affecting BRCA2 binding had no effect on peptide binding, mutations that affected RAD51-AP1 binding did disrupt peptide binding. As these mutations were at residues 202, 205, and 206, they were consistent with the previous fusion data showing binding somewhere in the 190-218 region, and indicated the peptide SEQ ID NO.:5 contacts at least residues 202, 205, and 206 of RAD51.

The target of the test “Rad51 (A190L; A192L)” is B2. The test is described as follows: yeast two-hybrid, human RAD51 mutant. The procedure:
as §1

For the test “Rad51 (S208E; A209D)”, the target named is B1. The test is described as follows: yeast two-hybrid, human RAD51 mutant. The protocol: as §1
The target of test [1] is B4. The experiment in a line: yeast two-hybrid, human RAD51 mutant. The procedure: as §1
In the test “Rad51 (F86E; A89E)” the target is B3. The experiment in a line: yeast two-hybrid, human RAD51 mutant. The procedure:
as §1

Test [2] has as its target B5. The experiment in a line: yeast two-hybrid, human RAD51 mutant. The protocol: as §1
The target of test [3] is T2, Rad51, fluorescently labelled …. The test is described as follows: microscale thermophoresis, labelled Rad51 about 500 nM, PBS. The procedure:
(§2) Microscale thermophoresis was performed as previously described (see, for e.g. Jerabek-Willemsen, M., Wienken, C. J., Braun, D., Baaske, P. & Duhr, S. Molecular interaction studies using microscale thermophoresis. Assay Drug Dev. Technol. 9, 342-353 (2011)). The affinity of the Compound was measured using the Monolith NT.115 from Nanotemper Technologies. Rad51 was fluorescently labelled according to the manufacturer's protocol and the labelled protein used for each assay was about 500 nM. A solution of unlabelled peptide was diluted for appropriate serial concentration gradient. The samples were loaded into silica capillaries (Polymicro Technologies). Measurements were performed at room temperature in buffer containing PBS, 0.1% Tween 20, 0.5 mM ATP, 2.5 uM ssDNA, with 1 mM CaCl2 (when mentioned). Measurements were done using 12% LED power and 60% MST power. The assays were repeated three times for each affinity measurement. Data analyses were performed using Nanotemper Analysis software and OriginPro 8.0 software provided by the manufacturer.

The target is the same in test [4]. The test is described as follows: microscale thermophoresis, 1 mM Ca2+ against no Ca2+. The protocol: as §2
In general terms: In MST a laser heats a spot of the sample, and binding alters the fluorescence response.

Test [5] has the same target. The test is described as follows: microscale thermophoresis, labelled Rad51 about 500 nM, PBS + 1 mM Ca2+. The procedure: as §2

This note sets out measurements from patent US20170368132A1 (published 2017).

For orientation: Kd means the equilibrium constant for the complex coming apart.

B1: the binding result with H. sapiens Rad51 is “binds”. Still for that read-out and setting: under B2 stands “no binding”. B3: the binding result with H. sapiens Rad51 is “no binding”. The same measure, in the same setting: with B4 the entry was “binds”. On to B5, for which the binding result in the test with H. sapiens Rad51 is “no binding”.

With KEPTLLGFHTASGKKVKIAKESLDKVKNLFDEKEQ (Y2H fusion in yeast) [residues 1517-1551 of human BRCA2 used as Y2H bait], the binding result in the test with Rad51 (A190L; A192L) is given as “no binding”; with Rad51 (S208E; A209D), “no binding”; in test [1], “binds”; with Rad51 (F86E; A89E), “binds”; in test [2], “no binding”. For the molecule Ac-[dL][dM][dR][dS][dV][dR][dL][dR][dV]G[dL][dR][dK][dR][dR][dR][dR][dR][dR][dR]-NH2 [Compound 10, Ac-lmrsvrlrvGlrkrrrrrrr-NH2], the dissociation constant Kd in test [3] was determined as 8.55 nM. Take Ac-K([C6-5FAM])RRRRRRRKRLGVRLRVSRML-NH2 (also called active peptide 5) [Compound 5, Ac-K(C6_5FAM)-RRRRRRRKRLGVRLRVSRML-NH2]: the dissociation constant (Kd) in test [3] was 8.37 nM; in test [5] it was 28.9 nM. In test [4], the “fold increase of Kd (calcium raised from 0 to 1 mM)” value is 3.4 fold.
